B1: Serine/threonine-protein kinase STE11 (Saccharomyces cerevisiae), P23561 (parent)
chain: MEQTQTAEGTDLLIGDEKTNDLPFVQLFLEEIGCTQYLDSFIQCNLVTEEEIKYLDKDILIALGVNKIGDRLKILRKSKSFQRDKRIEQVNRLKNLMEKVSSLSTATLSMNSELIPEKHCVIFILNDGSAKKVNVNGCFNADSIKKRLIRRLPHELLATNSNGEVTKMVQDYDVFVLDYTKNVLHLLYDVELVTICHANDRVEKNRLIFVSKDQTPSDKAISTSKKLYLRTLSALSQVGPSSSNLLAQNKGISHNNAEGKLRIDNTEKDRIRQIFNQRPPSEFISTNLAGYFPHTDMKRLQKTMRESFRHSARLSIAQRRPLSAESNNIGDILLKHSNAVDMALLQGLDQTRLSSKLDTTKIPKLAHKRPEDNDAISNQLELLSVESGEEEDHDFFGEDSDIVSLPTKIATPKNWLKGACIGSGSFGSVYLGMNAHTGELMAVKQVEIKNNNIGVPTDNNKQANSDENNEQEEQQEKIEDVGAVSHPKTNQNIHRKMVDALQHEMNLLKELHHENIVTYYGASQEGGNLNIFLEYVPGGSVSSMLNNYGPFEESLITNFTRQILIGVAYLHKKNIIHRDIKGANILIDIKGCVKITDFGISKKLSPLNKKQNKRASLQGSVFWMSPEVVKQTATTAKADIWSTGCVVIEMFTGKHPFPDFSQMQAIFKIGTNTTPEIPSWATSEGKNFLRKAFELDYQYRPSALELLQHPWLDAHII
B2: Serine/threonine-protein kinase STE11 (Saccharomyces cerevisiae), P23561 (parent)
chain: B1 chain
partner: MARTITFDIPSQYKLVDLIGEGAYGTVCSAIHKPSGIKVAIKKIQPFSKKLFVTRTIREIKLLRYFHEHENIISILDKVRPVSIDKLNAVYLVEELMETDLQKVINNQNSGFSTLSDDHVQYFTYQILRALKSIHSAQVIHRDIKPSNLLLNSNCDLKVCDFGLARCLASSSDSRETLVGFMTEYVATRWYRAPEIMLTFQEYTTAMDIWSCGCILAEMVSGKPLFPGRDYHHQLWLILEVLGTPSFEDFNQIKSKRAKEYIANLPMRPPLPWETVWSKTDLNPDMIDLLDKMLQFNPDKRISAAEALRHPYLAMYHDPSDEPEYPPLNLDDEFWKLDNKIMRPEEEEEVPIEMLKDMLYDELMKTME
B3: Serine/threonine-protein kinase STE11 (Saccharomyces cerevisiae), P23561 (parent)
chain: B1 chain
partner: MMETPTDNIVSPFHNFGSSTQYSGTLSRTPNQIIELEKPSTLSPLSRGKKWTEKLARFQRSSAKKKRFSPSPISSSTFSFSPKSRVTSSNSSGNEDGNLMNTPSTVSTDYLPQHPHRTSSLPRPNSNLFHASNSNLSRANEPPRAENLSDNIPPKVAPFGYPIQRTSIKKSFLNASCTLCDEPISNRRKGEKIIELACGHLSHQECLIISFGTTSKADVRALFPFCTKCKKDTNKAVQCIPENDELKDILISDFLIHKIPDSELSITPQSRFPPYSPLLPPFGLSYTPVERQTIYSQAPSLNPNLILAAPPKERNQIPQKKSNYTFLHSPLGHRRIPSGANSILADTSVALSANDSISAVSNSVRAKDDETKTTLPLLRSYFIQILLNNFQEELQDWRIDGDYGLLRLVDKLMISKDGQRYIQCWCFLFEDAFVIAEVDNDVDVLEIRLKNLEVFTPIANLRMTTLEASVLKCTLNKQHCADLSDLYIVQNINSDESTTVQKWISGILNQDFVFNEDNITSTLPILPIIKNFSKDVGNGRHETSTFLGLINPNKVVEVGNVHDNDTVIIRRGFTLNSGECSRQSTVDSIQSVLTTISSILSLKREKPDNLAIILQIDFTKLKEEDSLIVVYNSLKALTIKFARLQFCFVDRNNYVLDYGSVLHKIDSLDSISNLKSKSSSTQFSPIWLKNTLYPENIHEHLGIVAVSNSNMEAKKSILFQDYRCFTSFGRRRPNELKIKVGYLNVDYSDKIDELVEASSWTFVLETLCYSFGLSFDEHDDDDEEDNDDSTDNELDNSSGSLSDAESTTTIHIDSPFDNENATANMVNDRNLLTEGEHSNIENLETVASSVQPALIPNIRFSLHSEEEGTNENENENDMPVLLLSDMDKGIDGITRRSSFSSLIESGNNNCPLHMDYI

In one assay the parent is B1. The settings on record: with fus3_yeast FUS3, P16892.
fus3_yeast FUS3, P16892, sequence (P16892 whole entry): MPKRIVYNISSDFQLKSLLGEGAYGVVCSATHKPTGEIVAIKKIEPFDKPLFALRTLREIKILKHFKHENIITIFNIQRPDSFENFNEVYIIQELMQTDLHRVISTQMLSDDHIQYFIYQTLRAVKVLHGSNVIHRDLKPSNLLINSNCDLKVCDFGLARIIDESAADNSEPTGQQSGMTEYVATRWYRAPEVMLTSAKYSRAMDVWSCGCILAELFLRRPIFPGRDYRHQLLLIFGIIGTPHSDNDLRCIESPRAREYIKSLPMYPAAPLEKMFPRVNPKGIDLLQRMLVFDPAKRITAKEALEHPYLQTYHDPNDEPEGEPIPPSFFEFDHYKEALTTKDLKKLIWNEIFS
Regarding P279S, the “effect of a mutation on the interaction” value is given as “decreasing interaction”.

Another assay covers variants of B2. The settings on record: with kss1_yeast KSS1, P14681.
Take P279S: the “effect of a mutation on the interaction” value is on record as “decreasing interaction”.

The variants in the next assay derive from B3. The settings on record: with ste5_yeast STE5, P32917.
Regarding P279S, the “effect of a mutation on the interaction” value is “increasing interaction”.

These data come from IntAct's records for PubMed 7851759.
